Five molecules from article PMC11401910, “Dual client binding sites in the ATP-independent chaperone SurA” (Nature Communications, 2024) can be followed below.

What all share (settings): both partners purified
In test [1] the target is T1, SurA-WT (E. coli, UniProt P0ABZ6 21-428).
T1 construct: no cleavage step is described; For NMR the protein was made in D2O medium with 13C labels on Ile delta1 and Met epsilon methyls; also called wild-type SurA; apo-SurA; source: E. coli BL21(DE3), purified (HisTrap, dialysis)
T1 sequence (looked up): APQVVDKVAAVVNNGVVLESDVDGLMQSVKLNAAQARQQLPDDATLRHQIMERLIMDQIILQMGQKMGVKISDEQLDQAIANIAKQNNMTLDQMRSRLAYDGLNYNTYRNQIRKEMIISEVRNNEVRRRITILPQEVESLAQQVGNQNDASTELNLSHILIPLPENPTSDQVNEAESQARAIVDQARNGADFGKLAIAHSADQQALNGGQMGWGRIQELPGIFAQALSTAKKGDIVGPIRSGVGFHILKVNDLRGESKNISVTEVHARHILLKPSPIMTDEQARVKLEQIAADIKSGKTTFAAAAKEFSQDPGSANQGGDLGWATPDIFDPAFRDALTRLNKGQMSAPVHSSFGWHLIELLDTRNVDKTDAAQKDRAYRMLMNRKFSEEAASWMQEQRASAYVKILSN
Description: NMR titration; methyl-TROSY (2D 1H-13C SOFAST-HMQC) of Ile/Met 13CH3-labelled SurA-WT, single point: 5 µM SurA and 5 µM unfolded OMP; 5 mM EDTA, 20 mM Tris-HCl, pH 8.0, 0.8 M urea, 25 °C; peak intensities and CSPs.

For test [2], the target named is T1, SurA-WT. Description: FRET or BRET; single-molecule FRET (pulsed interleaved excitation) between donor and acceptor on the two termini of unfolded OmpX (~75 pM) with 30 μM SurA-WT or SurA-core; 20 mM Tris-HCl, 0.1 M urea, 0.02% Tween-20, 1 mM aged Trolox, pH 8.0, ~21 °C; binding is read from the change of the client's own FRET distribution. On the technique in general: In BRET a luciferase serves as donor, and the signal depends on an acceptor being close.

The target in test [3] is T2, SurA-core (E. coli, UniProt P0ABZ6 21-428, deleting codons for residues 172–389).
T2 construct: gene numbering including the signal peptide; no cleavage step described; also called core domain; construct lacking both PPIase domains; source: E. coli BL21(DE3), purified (HisTrap, dialysis)
T2 sequence (looked up): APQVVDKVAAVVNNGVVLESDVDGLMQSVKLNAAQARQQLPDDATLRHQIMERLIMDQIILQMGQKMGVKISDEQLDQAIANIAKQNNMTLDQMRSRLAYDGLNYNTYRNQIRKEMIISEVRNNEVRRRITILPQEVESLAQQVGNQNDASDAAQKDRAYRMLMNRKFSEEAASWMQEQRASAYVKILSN
The test is described as above.

The target of test [4] is T1, SurA-WT. In words: MST; 100 nM Alexa Fluor 488-labelled tBamA or OmpX, SurA-WT or SurA-core in serial dilution (40 μM–1.2 nM for tBamA, 12.5 μM–3 nM for OmpX); 0.8 M urea, 20 mM Tris-HCl, pH 8.0, 25 °C; fitted to a Hill equation, apparent Kd.
In test [5] the target is T2, SurA-core. Described as above.

B1: OmpF (natural protein, UniProt P02931 23-362, looked up)
chain: AEIYNKDGNKVDLYGKAVGLHYFSKGNGENSYGGNGDMTYARLGFKGETQINSDLTGYGQWEYNFQGNNSEGADAQTGNKTRLAFAGLKYADVGSFDYGRNYGVVYDALGYTDMLPEFGGDTAYSDDFFVGRVGGVATYRNSNFFGLVDGLNFAVQYLGKNERDTARRSNGDGVGGSISYEYEGFGIVGAYGAADRTNLQEAQPLGNGKKAEQWATGLKYDANNIYLAANYGETRNATPITNKFTNTSGFANKTQDVLLVAQYQFDFGLRPSIAYTKSKAKDVEGIGDVDLVNYFEVGATYYFNKNMSTYVDYIINQIDSDNKLGVGSDDTVAVGIVYQF
notes: Unfolded client (0.8 M urea); source: E. coli BL21[DE3], inclusion bodies, purified in 6 M Gdn-HCl (Superdex 75)
Turning to B1, the binding result with SurA-WT [1] is given as “binds”.

B2: tOmpA (domain or fragment, UniProt P0A910 22-192, looked up)
chain: APKDNTWYTGAKLGWSQYHDTGFINNNGPTHENQLGAGAFGGYQVNPYVGFEMGYDWLGRMPYKGSVENGAYKAQGVQLTAKLGYPITDDLDIYTRLGGMVWRADTKSNVYGKNHDTGVSPVFAGGVEYAITPEIATRLEYQWTNNIGDAHTIGTRPDNGMLSLGVSYRFG
notes: as for B1
For the molecule B2, in the test with SurA-WT [1], the binding result is on record as “binds”.

B3: Cys-OmpX-Cys labelled with Alexa Fluor 488 and ATTO 565 (natural protein)
chain: MGSCATSTVTGGYAQSDAQGQMNKMGGFNLKYRYEEDNSPLGVIGSFTYTEKSRTASSGDYNKNQYYGITAGPAYRINDWASIYGVVGVGYGKFQTTEYPTYKHDTSDYGFSYGAGLQFNPMENVALDFSYEQSRIRSVDVGTWIAGVGYRFC
modifications: Alexa Fluor 488 and ATTO 565 via maleimide on the N- and C-terminal Cys residues (stochastic labelling)
notes: additional C-terminal Cys residue; Unfolded client in 0.1 M urea; also called OmpX (smFRET); FRET-labelled OmpX; source: E. coli BL21[DE3], inclusion bodies, purified; labelled by maleimide chemistry
On to B3, for which the binding result with SurA-WT [2] and with SurA-core [3] was “binds” in each case.

B4: Cys-OmpX labelled with Alexa Fluor 488 (natural protein)
chain: MGSCATSTVTGGYAQSDAQGQMNKMGGFNLKYRYEEDNSPLGVIGSFTYTEKSRTASSGDYNKNQYYGITAGPAYRINDWASIYGVVGVGYGKFQTTEYPTYKHDTSDYGFSYGAGLQFNPMENVALDFSYEQSRIRSVDVGTWIAGVGYRF
modifications: Alexa Fluor 488 on the N-terminal Cys
notes: lacks the C-terminal Cys of Cys-OmpX-Cys; The MST methods say only 'Alexa Fluor 488-labelled OmpX'; also called Alexa Fluor 488-labelled OmpX; OmpX (MST); source: E. coli BL21[DE3], inclusion bodies, purified; labelled by maleimide chemistry
For B4, the binding result with SurA-WT [4] and with SurA-core [5] was “binds” throughout.

B5: OmpX (natural protein, UniProt P0A917 24-171, looked up)
chain: ATSTVTGGYAQSDAQGQMNKMGGFNLKYRYEEDNSPLGVIGSFTYTEKSRTASSGDYNKNQYYGITAGPAYRINDWASIYGVVGVGYGKFQTTEYPTYKHDTSDYGFSYGAGLQFNPMENVALDFSYEQSRIRSVDVGTWIAGVGYRF
notes: Unfolded client in the assay (0.8 M urea); Cloned at the NdeI site, so a start Met probably precedes residue 24; also called unfolded OmpX; full-length OmpX; source: E. coli BL21[DE3], inclusion bodies, purified in 6 M Gdn-HCl (Superdex 75)
Regarding B5, the binding result with SurA-WT [1] is reported as “binds”.
